In US20170340698A1, “CYCLIC PEPTIDE SPECIFICALLY BINDING TO APOPTOTIC CELLS AND USE THEREOF” (KYUNGPOOK NATIONAL UNIVERSITY INDUSTRY-ACADEMIC COOPERATION …, priority 2014, published 2017):

Test system: SNU16 human stomach cancer cell line
Test: In vitro binding of FITC-conjugated peptides to apoptotic cells, flow cytometry
Assay type: cell-based
Conditions: fluorescent probe
Description: SNU16 human stomach cancer cell line was purchased from KCLB (Seoul, Korea). […] After treatment, cells were incubated with fluorescein isothiocyanate (FITC)-conjugated linear or cyclic form of ApoPep-1 peptide at 4[…] for 1 hour. As control, cells were stained with Alexa488-conjugated annexin V (Life technologies, Carlsbad, Calif.) for 15 min at room temperature. Percentages of fluorescent (the liner or cyclic form of ApoPep-1 peptide-bound or annexin V-bound fluorescence) cells were calculated by measurement and analysis methods through the selection of the fluorescent signals (the liner or cyclic form of ApoPep-1 peptide-bound or annexin V-bound fluorescence), which were shown in the respective cells when cells in an emulsion state pass through a constant fluorescence detection zone, using flow cytometry (Fluorescence-activated cell sorting (FACS), FACS calibur, BD Biosciences, MA, USA).
Cyclic form of ApoPep-1 (cyclo[CQRPPRC] peptide of the present invention) was prepared by adding cysteine residue at the carboxy terminal of linear form of ApoPep-1 (CQRPPR) and performing cyclization through disulfide bonding.

B1: annexin V: existing apoptotic probe used as control, Alexa488-conjugated (Life technologies) (protein, UniProt P08758 2-320, looked up)
Annexin A5: AQVLRGTVTDFPGFDERADAETLRKAMKGLGTDEESILTLLTSRSNAQRQEISAAFKTLFGRDLLDDLKSELTGKFEKLIVALMKPSRLYDAYELKHALKGAGTNEKVLTEIIASRTPEELRAIKQVYEEEYGSSLEDDVVGDTSGYYQRMLVVLLQANRDPDAGIDEAQVEQDAQALFQAGELKWGTDEEKFITIFGTRSVSHLRKVFDKYMTISGFQIEETIDRETSGNLEQLLLAVVKSIRSIPAYLAETLYYAMKGAGTDDHTLIRVMVSRSEIDLFNIRKEFRKNFATSLYSMIKGDTSGDYKKALLLLCGEDD
modifications: Alexa488 conjugate
**Q.** B1 was tested. Which “percentage of apoptotic cells detected” value (SNU16 cells treated with cetuximab alone (200 ug/ml) for 24 hours) did it give?
**A.** ~40%

**Q.** And the “percentage of apoptotic cells detected” value (SNU16 cells treated with cisplatin (300 ng/ml) plus cetuximab in combination for 24 hours)?
**A.** ~45%

**Q.** And the “percentage of apoptotic cells detected” value (SNU16 cells treated with cisplatin alone (300 ng/ml) for 24 hours)?
**A.** approximately 43%
